In assay [1] the target is Streptomyces phage φBT1 integrase (Streptomyces phage φBT1). Nature of the assay: cross-linking; purified proteins, alone or mixed, incubated with or without dimethyl suberimidate (DMS), analysed by SDS-PAGE.
Assay [2] has the same target.
Assay [3] has as its target Gp3 of Streptomyces phage φBT1 (recombination directionality factor, excisionase) (Streptomyces phage φBT1). Description: cross-linking; purified proteins, alone or mixed, incubated with or without dimethyl suberimidate (DMS), analysed by SDS-PAGE.

As usually defined, the stoichiometry N is a count of units in the complex or per binding partner. In assay [1], “Streptomyces phage φBT1 integrase (enzyme)” came in with a stoichiometry N of 2.
For “Gp3 of Streptomyces phage φBT1 (recombination directionality factor, excisionase) (natural protein)”, in assay [2], the quantitative in vitro recombination (blue-white screen, white colonies): excision between attL and attR with integrase and Gp3 was determined as 89%; the quantitative in vitro recombination (blue-white screen, white colonies): integration between attB and attP in the presence of Gp3 (more than 90% without Gp3) worked out at 2%. Also, the stoichiometry N in assay [3] was 2.

These data come from publication PMC3836970.
